Test results as given in the supplement of paper PMC10567573.

B1: CD207 (parent)
chain: MTVEKEAPDAHFTVDKQNISLWPR

Variants of: B1
Assay: protein stability index of a GFP-peptide fusion (GPS, HEK-293T) (PSI 1-6); higher = more stable
Details: c terminus: a fixed tail appended
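Further: lentivirally expressed fusions sorted by FACS into six bins by GFP to DsRed ratio, PSI derived from sequencing read proportions per bin multiplied by bin number.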

Variant | protein stability index
MTVEKEVPDAHFTVDKQNISLWPR [A7V] | 3.51
MTVEKENPDAHFTVDKQNISLWPR [A7N] | 4.01
MTVEKETPDAHFTVDKQNISLWPR [A7T] | 3.31
MTVEKERPDAHFTVDKQNISLWPR [A7R] | 2.54
MTVEKEIPDAHFTVDKQNISLWPR [A7I] | 2.67
MTVEKEEPDAHFTVDKQNISLWPR [A7E] | 4.23
MTVEKECPDAHFTVDKQNISLWPR [A7C] | 3.31
MTVEKEYPDAHFTVDKQNISLWPR [A7Y] | 2.93
MTVEKEMPDAHFTVDKQNISLWPR [A7M] | 2.61
MTVEKESPDAHFTVDKQNISLWPR [A7S] | 3.71
MTVEKEKPDAHFTVDKQNISLWPR [A7K] | 3.11
MTVEKEWPDAHFTVDKQNISLWPR [A7W] | 2.68
MTVEKEDPDAHFTVDKQNISLWPR [A7D] | 3.79
MTVEKEPPDAHFTVDKQNISLWPR [A7P] | 3.54
MTVEKEQPDAHFTVDKQNISLWPR [A7Q] | 3.97
MTVEKEFPDAHFTVDKQNISLWPR [A7F] | 2.77
MTVEKEHPDAHFTVDKQNISLWPR [A7H] | 3.32
MTVEKELPDAHFTVDKQNISLWPR [A7L] | 2.96
MTVEMEAPDAHFTVDKQNISLWPR [K5M] | 2.04
MTVEREAPDAHFTVDKQNISLWPR [K5R] | 2.94
MTVEIEAPDAHFTVDKQNISLWPR [K5I] | 1.95
MTVEYEAPDAHFTVDKQNISLWPR [K5Y] | 1.99
MTVESEAPDAHFTVDKQNISLWPR [K5S] | 3.04
MTVECEAPDAHFTVDKQNISLWPR [K5C] | 2.58

Variant | protein stability index
MTVEDEAPDAHFTVDKQNISLWPR [K5D] | 3.48
MTVEAEAPDAHFTVDKQNISLWPR [K5A] | 2.96
MTVEEEAPDAHFTVDKQNISLWPR [K5E] | 4.03
MTVENEAPDAHFTVDKQNISLWPR [K5N] | 3.13
MTVEWEAPDAHFTVDKQNISLWPR [K5W] | 2.04
MTVETEAPDAHFTVDKQNISLWPR [K5T] | 2.89
MTVEVEAPDAHFTVDKQNISLWPR [K5V] | 1.53
MTVEHEAPDAHFTVDKQNISLWPR [K5H] | 3.27
MTVEPEAPDAHFTVDKQNISLWPR [K5P] | 3.48
MTVEGEAPDAHFTVDKQNISLWPR [K5G] | 3.79
MTVELEAPDAHFTVDKQNISLWPR [K5L] | 1.86
MTVEFEAPDAHFTVDKQNISLWPR [K5F] | 2.02
MTVEKEAPMAHFTVDKQNISLWPR [D9M] | 2.56
MTVEKEAPFAHFTVDKQNISLWPR [D9F] | 2.37
MTVEKEAPKAHFTVDKQNISLWPR [D9K] | 2.44
MTVEKEAPTAHFTVDKQNISLWPR [D9T] | 2.94
MTVEKEAPHAHFTVDKQNISLWPR [D9H] | 2.89
MTVEKEAPEAHFTVDKQNISLWPR [D9E] | 3.15
MTVEKEAPRAHFTVDKQNISLWPR [D9R] | 3.13
MTVEKEAPWAHFTVDKQNISLWPR [D9W] | 2.91
MTVEKEAPPAHFTVDKQNISLWPR [D9P] | 2.95
MTVEKEAPSAHFTVDKQNISLWPR [D9S] | 3.25
MTVEKEAPCAHFTVDKQNISLWPR [D9C] | 3.01
MTVEKEAPGAHFTVDKQNISLWPR [D9G] | 3.05

Variant | protein stability index
MTVEKEAPNAHFTVDKQNISLWPR [D9N] | 3.27
MTVEKEAPLAHFTVDKQNISLWPR [D9L] | 2.38
MTVEKEAPIAHFTVDKQNISLWPR [D9I] | 2.19
MTVEKEAPYAHFTVDKQNISLWPR [D9Y] | 2.42
MTVEKEAPQAHFTVDKQNISLWPR [D9Q] | 3.23
MTVEKEAPAAHFTVDKQNISLWPR [D9A] | 2.79
MQVEKEAPDAHFTVDKQNISLWPR [T2Q] | 3.54
MGVEKEAPDAHFTVDKQNISLWPR [T2G] | 3.68
MRVEKEAPDAHFTVDKQNISLWPR [T2R] | 2.83
MFVEKEAPDAHFTVDKQNISLWPR [T2F] | 2.71
MNVEKEAPDAHFTVDKQNISLWPR [T2N] | 3.36
MCVEKEAPDAHFTVDKQNISLWPR [T2C] | 2.54
MSVEKEAPDAHFTVDKQNISLWPR [T2S] | 3.57
MWVEKEAPDAHFTVDKQNISLWPR [T2W] | 2.59
MMVEKEAPDAHFTVDKQNISLWPR [T2M] | 3.86
MKVEKEAPDAHFTVDKQNISLWPR [T2K] | 3.65
MHVEKEAPDAHFTVDKQNISLWPR [T2H] | 3.08
MVVEKEAPDAHFTVDKQNISLWPR [T2V] | 3.21
MDVEKEAPDAHFTVDKQNISLWPR [T2D] | 3.62
MIVEKEAPDAHFTVDKQNISLWPR [T2I] | 2.94
MLVEKEAPDAHFTVDKQNISLWPR [T2L] | 3.17
MAVEKEAPDAHFTVDKQNISLWPR [T2A] | 3.35
MYVEKEAPDAHFTVDKQNISLWPR [T2Y] | 2.18
MTVEKEAPDHHFTVDKQNISLWPR [A10H] | 3.76

Variant | protein stability index
MTVEKEAPDGHFTVDKQNISLWPR [A10G] | 3.75
MTVEKEAPDQHFTVDKQNISLWPR [A10Q] | 3.46
MTVEKEAPDMHFTVDKQNISLWPR [A10M] | 2.31
MTVEKEAPDRHFTVDKQNISLWPR [A10R] | 2.48
MTVEKEAPDDHFTVDKQNISLWPR [A10D] | 3.56
MTVEKEAPDFHFTVDKQNISLWPR [A10F] | 2.84
MTVEKEAPDPHFTVDKQNISLWPR [A10P] | 3.01
MTVEKEAPDIHFTVDKQNISLWPR [A10I] | 2.21
MTVEKEAPDSHFTVDKQNISLWPR [A10S] | 3.5
MTVEKEAPDTHFTVDKQNISLWPR [A10T] | 3.83
MTVEKEAPDEHFTVDKQNISLWPR [A10E] | 4.07
MTVEKEAPDLHFTVDKQNISLWPR [A10L] | 2.91
MTVEKEAPDKHFTVDKQNISLWPR [A10K] | 3.09
MTVEKEAPDCHFTVDKQNISLWPR [A10C] | 3.77
MTVEKEAPDNHFTVDKQNISLWPR [A10N] | 3.23
MTVEKMAPDAHFTVDKQNISLWPR [E6M] | 2.52
MTVEKWAPDAHFTVDKQNISLWPR [E6W] | 2.29
MTVEKGAPDAHFTVDKQNISLWPR [E6G] | 3.27
MTVEKFAPDAHFTVDKQNISLWPR [E6F] | 2.27
MTVEKHAPDAHFTVDKQNISLWPR [E6H] | 2.83
MTVEKDAPDAHFTVDKQNISLWPR [E6D] | 3.31
MTVEKCAPDAHFTVDKQNISLWPR [E6C] | 2.32
